Measurements reported in IntAct's records for PubMed 16418270.

B1: Ribonuclease P protein component 2 (Pyrococcus furiosus), Q8U151 (parent)
chain: MSERPKTLPPTLRDKKRYIAFKVISENQFNKDEIKEAIWNACLRTLGELGTAKAKPWLIKFDETTQTGIIRCDRNHVYDVIFSLTLVSDINGNKAIIKVLGVSGTIKRLKRKFLSQFGWR
partner: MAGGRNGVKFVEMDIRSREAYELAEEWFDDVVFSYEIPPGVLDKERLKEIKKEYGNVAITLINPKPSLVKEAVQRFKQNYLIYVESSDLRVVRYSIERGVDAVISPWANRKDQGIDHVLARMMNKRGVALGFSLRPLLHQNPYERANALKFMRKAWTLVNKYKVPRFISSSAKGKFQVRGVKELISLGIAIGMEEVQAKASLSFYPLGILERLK

Variants of: B1
Conditions: with rnp3_pyrfu rnp3, Q8TZS0

Row | Variant | effect of a mutation on the interaction
1 | MSERPKTLPPTLRDKKRYIAFKVISENQFNKDEIKEAIWNACLRTLGELGTAKAKPWLIKFDETTQTGIIRSDRNHVYDVIFSLTLVSDINGNKAIIKVLGVSGTIKRLKRKFLSQFGWR | decreasing interaction
